For one molecule, Kd results are on record in patent publication US7935795 (EVEC, dated 2011).

The experiment addresses T1, recombinant human granulocyte-macrophage colony stimulating factor (hGM-CSF) (human, UniProt P04141 18-144).
T1 construct: also called recombinant GM-CSF; recombinant hGM-CSF
In words: BIAcore, antibody immobilised on sensor chip, recombinant hGM-CSF as analyte. How it is done: Affinity analysis was conducted on the anti-hGM-CSF antibody applying BIAcore® system (FIG. 4). In the method, the antibody (purified antibody) was immobilized to a sensor chip, and then an antigen (recombinant) was added to the surface of the immobilized antibody, so that the interaction between antibody and an antigen was measured. A purified antibody was applied to the antibody, and a recombinant hGM-CSF was applied to the antigen. A mouse anti-GM-CSF monoclonal antibody (commercially available) (R&D) was applied to a positive control, and a purified anti-human cytomegalovirus monoclonal antibody was applied to a negative control. After the analysis, it turned out that antigen-antibody interaction was not detected in the negative control. In the positive control, dissociation constant of 6.1×10^-9 M is shown as the affinity. The affinity of the anti-GM-CSF antibody obtained was 2.1×10^-10 M (FIG. 5).

T1 sequence (P04141 18-144 limits assumed): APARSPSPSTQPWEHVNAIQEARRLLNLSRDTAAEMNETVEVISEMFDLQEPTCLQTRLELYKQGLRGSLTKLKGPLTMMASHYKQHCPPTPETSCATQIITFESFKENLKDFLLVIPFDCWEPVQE

B1: anti-hGM-CSF human monoclonal antibody J158 4C (antibody, human IgG1, kappa, V domains shown)
VH: LVQLVQSEAEVKKPGASVRISCRTSGYIFPTFALHWVRQAPGQSLEWVGSINTASGKTKFSTKFQDRLTLSSNTSATTVYMDLSGLTLDDTALYYCARDRFQNIMATILDVWGQGTLVTVSS
VL: DIVLTQSPGTLSLSPGERVTVSCRASHRVSSNYLAWYQQRPGQSPRLLIFGASNRATGVPDRFSGSGSGTDFALTISRLEPDDFAVYYCQQYASSPVTFGGGTKLEIKR
notes: also called anti-hGM-CSF antibody; anti-GM-CSF antibody
Consider B1, for which the dissociation constant Kd is 0.21 nM.
